Measured values from patent US5723761.

Experiments:
C16:0-ACP [1] = molecular target: C16:0-ACP
C14:0-ACP [2] = molecular target: C14:0-ACP
C16:0-ACP [3] = molecular target: C16:0-ACP; remark: listed apart in the source
C14:0-ACP [4] = molecular target: C14:0-ACP; remark: listed apart in the source

Fatty Acyl Composition of Transgenic Canola Seeds (mol %), 16:0 (C16:0-ACP [1]) [mol %]	Fatty Acyl Composition of Transgenic Canola Seeds (mol %), 14:0 (C14:0-ACP [2]) [mol %]	Fatty Acids (nmol/ml), total fatty acid analysis of liquid cultures of CUPH-1 transformed K27 (fadD) (C16:0-ACP [3]) [nmol/mL]	Fatty Acids (nmol/ml), total fatty acid analysis of liquid cultures of CUPH-1 transformed K27 (fadD) (16:1-ACP) [nmol/mL]	Fatty Acids (nmol/ml), total fatty acid analysis of liquid cultures of CUPH-1 transformed K27 (fadD) (12:1-ACP) [nmol/mL]	Fatty Acids (nmol/ml), total fatty acid analysis of liquid cultures of CUPH-1 transformed K27 (fadD) (C18:1-ACP) [nmol/mL]	Fatty Acids (nmol/ml), total fatty acid analysis of liquid cultures of CUPH-1 transformed K27 (fadD) (C12:0-ACP) [nmol/mL]	Fatty Acids (nmol/ml), total fatty acid analysis of liquid cultures of CUPH-1 transformed K27 (fadD) (14:1-ACP) [nmol/mL]	Fatty Acids (nmol/ml), total fatty acid analysis of liquid cultures of CUPH-1 transformed K27 (fadD) (C14:0-ACP [4]) [nmol/mL]	Fatty Acyl Composition of Transgenic Canola Seeds (mol %), 10:0 (C10:0-ACP) [mol %]	Substance
27.6	0.98	281	124	0.3	92.7	2	1.1	225		Cuphea hookeriana Class II thioesterase CUPH-1 (cDNA clone CMT9) (enzyme)
20									3.94	elm Class II acyl-ACP thioesterase (ULM-1) (enzyme)
